The text below walks through data of US20240101645A1 (HENRY M JACKSON FOUNDATION FOR THE ADVANCEMENT OF MILITARY …, published 2024).

The target of test [1] is T1, HCoV-NL63 spike antigens (bead panel) (HCoV-NL63, UniProt Q6Q1S2 19-1296).
T1 sequence: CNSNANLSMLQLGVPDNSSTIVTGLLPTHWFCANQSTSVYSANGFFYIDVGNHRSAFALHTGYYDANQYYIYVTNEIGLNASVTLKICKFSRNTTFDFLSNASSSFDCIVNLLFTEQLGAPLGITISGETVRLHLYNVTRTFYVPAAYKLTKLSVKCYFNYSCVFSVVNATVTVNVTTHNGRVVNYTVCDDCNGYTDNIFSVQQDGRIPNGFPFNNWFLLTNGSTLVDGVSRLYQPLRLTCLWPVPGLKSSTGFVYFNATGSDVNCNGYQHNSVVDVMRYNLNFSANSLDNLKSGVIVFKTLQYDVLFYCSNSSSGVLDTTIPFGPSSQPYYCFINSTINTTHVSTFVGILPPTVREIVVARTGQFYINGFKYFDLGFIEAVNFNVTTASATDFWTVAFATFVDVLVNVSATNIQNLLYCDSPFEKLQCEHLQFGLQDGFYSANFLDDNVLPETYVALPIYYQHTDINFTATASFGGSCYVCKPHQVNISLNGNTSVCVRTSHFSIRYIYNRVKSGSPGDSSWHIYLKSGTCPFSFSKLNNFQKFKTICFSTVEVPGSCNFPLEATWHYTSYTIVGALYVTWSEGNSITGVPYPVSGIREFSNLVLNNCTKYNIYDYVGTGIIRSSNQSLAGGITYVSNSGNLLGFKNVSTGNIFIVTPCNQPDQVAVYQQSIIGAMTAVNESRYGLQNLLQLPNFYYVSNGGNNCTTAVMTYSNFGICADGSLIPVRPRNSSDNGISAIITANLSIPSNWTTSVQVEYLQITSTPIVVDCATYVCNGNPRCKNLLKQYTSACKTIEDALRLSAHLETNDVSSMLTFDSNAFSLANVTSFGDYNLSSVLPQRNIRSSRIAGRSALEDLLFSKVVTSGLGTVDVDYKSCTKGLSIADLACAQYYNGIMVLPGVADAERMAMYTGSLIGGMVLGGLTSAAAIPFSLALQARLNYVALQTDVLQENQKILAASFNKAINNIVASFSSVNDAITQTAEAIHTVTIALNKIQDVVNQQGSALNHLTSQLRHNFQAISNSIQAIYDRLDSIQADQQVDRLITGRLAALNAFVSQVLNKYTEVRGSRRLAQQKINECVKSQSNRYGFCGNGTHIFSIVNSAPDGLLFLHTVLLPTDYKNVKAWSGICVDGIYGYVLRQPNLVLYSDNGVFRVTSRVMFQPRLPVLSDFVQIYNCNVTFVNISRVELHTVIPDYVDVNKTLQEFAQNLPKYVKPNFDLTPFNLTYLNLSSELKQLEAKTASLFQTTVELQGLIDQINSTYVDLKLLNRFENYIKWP
The test is described as follows: multiplex bead assay.

Test [2] deals with T2, HCoV-HKU1 spike antigens (bead panel) (HCoV-HKU1, UniProt Q5MQD0 13-1300).
T2 sequence: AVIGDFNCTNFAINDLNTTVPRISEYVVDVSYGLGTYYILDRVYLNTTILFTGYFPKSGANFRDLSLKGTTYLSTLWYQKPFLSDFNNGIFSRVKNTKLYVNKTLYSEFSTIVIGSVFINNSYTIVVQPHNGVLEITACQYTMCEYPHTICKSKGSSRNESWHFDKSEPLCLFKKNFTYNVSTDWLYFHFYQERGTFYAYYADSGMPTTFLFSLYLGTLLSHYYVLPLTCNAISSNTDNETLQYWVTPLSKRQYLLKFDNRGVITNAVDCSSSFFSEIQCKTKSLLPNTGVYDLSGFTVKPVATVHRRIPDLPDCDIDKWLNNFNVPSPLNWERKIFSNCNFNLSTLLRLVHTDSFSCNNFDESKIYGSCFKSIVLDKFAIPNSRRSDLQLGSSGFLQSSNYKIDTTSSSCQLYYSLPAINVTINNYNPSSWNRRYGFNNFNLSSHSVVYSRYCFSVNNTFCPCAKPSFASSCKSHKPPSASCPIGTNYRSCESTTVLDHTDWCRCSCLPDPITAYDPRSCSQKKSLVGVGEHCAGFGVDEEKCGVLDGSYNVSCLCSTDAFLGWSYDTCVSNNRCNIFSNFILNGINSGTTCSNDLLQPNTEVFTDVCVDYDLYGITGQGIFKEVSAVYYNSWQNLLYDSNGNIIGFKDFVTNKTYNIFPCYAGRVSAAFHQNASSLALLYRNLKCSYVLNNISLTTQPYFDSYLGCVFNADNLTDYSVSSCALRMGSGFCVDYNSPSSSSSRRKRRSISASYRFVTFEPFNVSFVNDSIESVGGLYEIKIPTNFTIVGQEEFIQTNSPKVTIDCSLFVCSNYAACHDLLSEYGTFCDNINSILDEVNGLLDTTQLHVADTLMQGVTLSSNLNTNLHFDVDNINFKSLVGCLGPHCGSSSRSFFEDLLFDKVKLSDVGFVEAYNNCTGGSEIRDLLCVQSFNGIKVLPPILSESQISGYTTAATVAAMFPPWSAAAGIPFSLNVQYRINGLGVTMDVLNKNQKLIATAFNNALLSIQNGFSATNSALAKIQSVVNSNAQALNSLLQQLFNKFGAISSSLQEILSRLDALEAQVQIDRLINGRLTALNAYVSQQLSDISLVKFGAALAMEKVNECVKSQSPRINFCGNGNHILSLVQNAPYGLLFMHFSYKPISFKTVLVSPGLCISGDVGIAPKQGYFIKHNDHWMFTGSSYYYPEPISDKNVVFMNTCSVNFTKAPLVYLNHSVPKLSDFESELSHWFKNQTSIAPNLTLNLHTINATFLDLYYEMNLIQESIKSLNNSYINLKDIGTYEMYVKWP
The test is described as follows: multiplex bead assay.

B1: COV_2125 (antibody, V domains shown)
VH: EVQLVESGGGVVQPGRSLRLSCAASGFTFSSYGMHWVRQAPGKGLEWVAVISYDGSNKYYADSVKGRFTISRDNSKNTLSLQMNSLRPEDTAVYYCAKDSPYYYDSSGYYPGYFQDWGQGSLVTVSS
VL: DIQMTQSPSSLSASIGDRVTITCRASQTISDYLNWYQQKPGKAPNLLIYAASTLQSGVPSRFSGSGSGTDFTLTISSLQPEDFATYYCQQSYITPRTFGQGTKVEIK
notes: human IgG1
Consider B1, for which the binding result in test [1] and in test [2] was “no binding” each time.
